The results in this text go back to publication PMC7470959, “Structures of mammalian GLD-2 proteins reveal molecular basis of their functional diversity in mRNA and microRNA processing”.

Residue numbers refer to the chain shown, from its start.

Conditions in all cases: protein: recombinant; tags: N-terminal His6 removed by PreScission protease; label: 5' biotin; single strand
One series addresses T1, rnGLD-2 R443A (Rattus norvegicus, UniProt Q5U315 131-484, R443A).
T1 sequence: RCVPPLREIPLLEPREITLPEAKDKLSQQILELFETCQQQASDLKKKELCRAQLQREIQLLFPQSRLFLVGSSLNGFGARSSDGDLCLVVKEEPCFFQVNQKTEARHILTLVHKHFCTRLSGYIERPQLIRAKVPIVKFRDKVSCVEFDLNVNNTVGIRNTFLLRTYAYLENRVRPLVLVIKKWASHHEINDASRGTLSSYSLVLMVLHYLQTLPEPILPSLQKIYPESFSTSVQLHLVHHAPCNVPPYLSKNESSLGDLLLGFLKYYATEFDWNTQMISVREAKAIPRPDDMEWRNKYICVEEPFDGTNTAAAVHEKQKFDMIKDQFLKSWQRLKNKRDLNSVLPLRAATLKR
In words: EMSA; 4 uM protein, 50 nM RNA; EMSA: 20 mM Tris-HCl pH 8.0, 100 mM NaCl, 37 C 20 min; 4 uM protein, 50 nM 5' biotinylated RNA; 6% native gel, TAE pH 7.2, 4 C. (In general: In EMSA bound probe runs differently from free probe, usually more slowly.)

The next series deals with T2, rnGLD-2 R325A (Rattus norvegicus, UniProt Q5U315 131-484, R325A).
T2 sequence: T1 sequence with R195A, A313R
Described as above.

A further series has as its target T3, rnGLD-2 R236A (Rattus norvegicus, UniProt Q5U315 131-484, R236A).
T3 sequence: T1 sequence with R106A, A313R
Description: EMSA; 4 uM protein, 50 nM RNA; efficient/tight binding stated; EMSA: 20 mM Tris-HCl pH 8.0, 100 mM NaCl, 37 C 20 min; 4 uM protein, 50 nM 5' biotinylated RNA; 6% native gel, TAE pH 7.2, 4 C.

Another series deals with T4, rnGLD-2 NTase region WT (Rattus norvegicus, UniProt Q5U315 131-484).
T4 sequence: T1 sequence with A313R
In words: EMSA; 4 uM protein, 50 nM RNA; described as weak interaction; no Mg2+ listed in binding buffer; EMSA: 20 mM Tris-HCl pH 8.0, 100 mM NaCl, 37 C 20 min; 4 uM protein, 50 nM 5' biotinylated RNA; 6% native gel, TAE pH 7.2, 4 C.

AAAAAAAAAAAAAAA (ssRNA) [A15]: the binding result with rnGLD-2 R443A was “no binding”; with rnGLD-2 R325A, “no binding”; with rnGLD-2 R236A it was “binds”; with rnGLD-2 NTase region WT, “binds”.
